The text below walks through data of paper PMC2715080 (The Journal of Experimental Medicine, 2009).

Assay [1] has as its target T1, B7-H6-Fc (extracellular domain of B7-H6, aa 1-267, fused to effector-negative mouse IgG2a Fc) (human, UniProt Q68D85 25-267).
T1 sequence (looked up): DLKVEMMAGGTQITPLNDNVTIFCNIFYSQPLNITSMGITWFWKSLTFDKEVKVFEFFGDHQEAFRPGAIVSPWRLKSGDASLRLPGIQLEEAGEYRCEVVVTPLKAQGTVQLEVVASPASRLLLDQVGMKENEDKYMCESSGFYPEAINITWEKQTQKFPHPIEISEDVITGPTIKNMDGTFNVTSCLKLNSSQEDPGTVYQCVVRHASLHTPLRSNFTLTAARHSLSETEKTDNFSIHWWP
As to the kind of experiment: SPR.

Assay [2] deals with T1, B7-H6-Fc (extracellular domain of …). As to the kind of experiment: SPR. The source holds these as a separate data set. A general note: In SPR one partner is held on a chip, and binding of the other changes the refractive index at the surface.

Read-outs that look alike come from different tables or passages of the source.

B1: NKp30-hFc (soluble recombinant NKp30 fused to mutated human IgG1) (Fc fusion, UniProt O14931 19-135, looked up)
chain: LWVSQPPEIRTLEGSSAFLPCSFNASQGRLAIGSVTWFRDEVVPGKEVRNGTPEFRGRLAPLASSRFLHDHQAELHIRDVRGHDASIYVCRVEVLGLGVGTGNGTRLVVEKEHPQLG
With B1, the binding result in assay [1] and in assay [2] was “binds” in each case.
